Data from paper PMC9741242, “Insights into the Structure of the Highly Glycosylated Ffase from Rhodotorula dairenensis Enhance Its Biotechnological Potential” (International Journal of Molecular Sciences, 2022).
Positions count from the first letter of the chain named. Names and notes keep the numbering of the source.

B1: RdINVΔ21–139 (Rhodotorula dairenensis) (protein)
chain: SSSCAPTSLPASATELPTTVPTGTVITGDYTGSYRPQVHYSPPKGFMNDPNGCHRDRNGTYHLYYQYNPLEYVAGNQHWGHATSDDLYHWTNQPIAIFPPNSTSQVFSGSAVLDPNNTSGFFPNTTDGVVAVYTLNTPTLQVQEVAYSTDGGYNFTPYENNPVLSVGSNQFRDPKVFWYEDHWVMAVAAANDFTIEIYTSPNLTSWTFASNFTHHGLLGLAYECPNLVQVPFQDDPSKSAWLMYISINPGAPLGGSVGQYFPGDFNGTHFVAYDSAARIADFAKDNYASQWFADTENGESISIAWASNWQYTQQVPTSAQAFRSAMSLPRRNYLTNITRLGWDLVSLPYDLSPVVGPSLLSSSEANSTADVDFTNVTSNAVWFSLNVTLPDAAIQNASLISADASINITFLPSTKCSSSSGSGSDSPAATLTYFYAGLTNGALALTRPAASSSWGAENPFFTDKFSYTLVDPLTSLVGVFDRSMLEVFVNEGAHSATMLVFPDSPVGSMKVATGGLPEGTQVNLQVNGLESTWQSS
notes: truncated: residues 21-139 deleted after the signal peptide (residues 140-675 remain); secreted by Komagataella phaffii, glycosylated, ~100 kDa; homodimer; deglycosylated for crystals
B2: RdINV (Rhodotorula dairenensis; A213W/Q216L) (protein)
chain: APAASSLAGPVTTGVFSAVSAIPSFATNLSGQVASATSTVLSGSTASGSSATAAPSASASGASSMQSMASSLSGSAFSPSSMMPIASGNMTMPNMTSSASASSAASTATGVAGGAGSNSSSSCAPTSLPASATELPTTVPTGTVITGDYTGSYRPQVHYSPPKGFMNDPNGCHRDRNGTYHLYYQYNPLEYVWGNLHWGHATSDDLYHWTNQPIAIFPPNSTSQVFSGSAVLDPNNTSGFFPNTTDGVVAVYTLNTPTLQVQEVAYSTDGGYNFTPYENNPVLSVGSNQFRDPKVFWYEDHWVMAVAAANDFTIEIYTSPNLTSWTFASNFTHHGLLGLAYECPNLVQVPFQDDPSKSAWLMYISINPGAPLGGSVGQYFPGDFNGTHFVAYDSAARIADFAKDNYASQWFADTENGESISIAWASNWQYTQQVPTSAQAFRSAMSLPRRNYLTNITRLGWDLVSLPYDLSPVVGPSLLSSSEANSTADVDFTNVTSNAVWFSLNVTLPDAAIQNASLISADASINITFLPSTKCSSSSGSGSDSPAATLTYFYAGLTNGALALTRPAASSSWGAENPFFTDKFSYTLVDPLTSLVGVFDRSMLEVFVNEGAHSATMLVFPDSPVGSMKVATGGLPEGTQVNLQVNGLESTWQSS
notes: full-length RdINV, 675 residues, S. cerevisiae MFalpha secretion signal in pIB4, secreted by Komagataella phaffii; highly N- and O-glycosylated, ~170 kDa; homodimer
B3: RdINV (Rhodotorula dairenensis; A213W) (protein)
chain: B2 chain with L196Q
notes: as for B2
B4: RdINV (Rhodotorula dairenensis; N387T) (protein)
chain: B2 chain with W193A, L196Q, N367T
notes: as for B2
B5: RdINV (Rhodotorula dairenensis; Q216L) (protein)
chain: B2 chain with W193A
notes: as for B2
B6: RdINV (Rhodotorula dairenensis; A360Q) (protein)
chain: B2 chain with W193A, L196Q, A340Q
notes: as for B2
B7: RdINV (Rhodotorula dairenensis; A360Q/N387T) (protein)
chain: B2 chain with W193A, L196Q, A340Q, N367T
notes: as for B2
B8: RdINV (Rhodotorula dairenensis) (protein)
chain: B2 chain with W193A, L196Q
notes: as for B2
B9: RdINV (Rhodotorula dairenensis; Q216T) (protein)
chain: B2 chain with W193A, L196T
notes: as for B2

These proteins were tested on OC[C@H]1O[C@@](CO)(O[C@H]2O[C@H](CO)[C@@H](O)[C@H](O)[C@H]2O)[C@@H](O)[C@@H]1O (assay: DNS reducing sugar assay, Michaelis-Menten fit). Settings: 50 mM sodium phosphate pH 5.5, 60 °C, sucrose 1-200 mM.
Type: biochemical, Rhodotorula dairenensis
Text: DNS reducing sugar assay, Michaelis-Menten fit on RdINVΔ21–139

With B1 the Km was 9 ± 1 mM.

Work on B1 yielded a kcat of 16400 ± 216 s⁻¹.

B1 was tested, and the kcat/Km was 1.781e+06 ± 16000 M⁻¹ s⁻¹.

Substrate: OC[C@H]1O[C@@](CO)(O[C@H]2O[C@H](CO)[C@@H](O)[C@H](O)[C@H]2O)[C@@H](O)[C@@H]1O
Experiment: DNS reducing sugar assay, Michaelis-Menten fit
Type: biochemical, Rhodotorula dairenensis
Settings: 50 mM sodium phosphate pH 5.5, 60 °C, sucrose 1-200 mM
Remark: another data set of the same source
Text: DNS reducing sugar assay, Michaelis-Menten fit on RdINV

Going from B2 to B3, the Km falls from 88 ± 9 mM to 47 ± 3 mM (1.9-fold).

B4 and B5 are within 1.5-fold of each other in Km: 17 ± 0.8 mM for the first, 24 ± 1 mM for the second.

B6 and B7 are within 1.5-fold of each other in Km: 15 ± 0.2 mM for the first, 14 ± 0.6 mM for the second.

First: B8
Second: B9
The Km of the first is 2.6-fold lower: 5 ± 0.1 mM for the first, 13 ± 1 mM for the second.

Going from B2 to B3, the kcat falls from 10500 ± 329 s⁻¹ to 2720 ± 45 s⁻¹ (3.9-fold).

Compared with B4, B5 is 4-fold higher in kcat: 583 ± 5 s⁻¹ for the first, 2324 ± 13 s⁻¹ for the second.

First: B6
Second: B7
The kcat of the first is 7.8-fold higher: 3814 ± 16 s⁻¹ for the first, 486 ± 4 s⁻¹ for the second.

Going from B8 to B9, the kcat rises from 4751 ± 25 s⁻¹ to 11500 ± 182 s⁻¹ (2.4-fold).

Going from B2 to B3, the kcat/Km falls from 120000 ± 4000 M⁻¹ s⁻¹ to 58000 ± 3000 M⁻¹ s⁻¹ (2.1-fold).

First: B4
Second: B5
The kcat/Km of the first is 2.8-fold lower: 35000 ± 1000 M⁻¹ s⁻¹ for the first, 98000 ± 3000 M⁻¹ s⁻¹ for the second.

Going from B6 to B7, the kcat/Km falls from 251000 ± 21000 M⁻¹ s⁻¹ to 34000 ± 1000 M⁻¹ s⁻¹ (7.4-fold).

B8 and B9 are within 1.5-fold of each other in kcat/Km: 1.011e+06 ± 10000 M⁻¹ s⁻¹ for the first, 864000 ± 39000 M⁻¹ s⁻¹ for the second.
